This is an account of results in US20190300618A1 (Merck Sharp & Dohme, published 2019).

pEC50: −log10 of the molar value.

The target in experiment [1] is human CD27 (A59T), expressed on cells (human) (UniProt P26842). The experiment in a line: cell-based or functional assay.
Experiment [2] addresses human CD27 (wild type), expressed on cells (human) (UniProt P26842). The experiment in a line: cell-based or functional assay.
The target is the same in experiment [3]. The experiment in a line: cell ELISA on transfected CHO cells.
Experiment [4] shares this target. The experiment is described as follows: flow cytometry MFI on CD8+ T cells from peripheral blood.
The target in experiment [5] is human CD27 (A59T), expressed on cells (human) (UniProt P26842). The experiment is described as follows: cell ELISA on CD27-transfected CHOK1 cells.
Experiment [6] deals with human CD27 (wild type), expressed on cells (human) (UniProt P26842). The experiment in a line: cell ELISA on CD27-transfected CHOK1 cells.
For experiment [7], the target named is Macaca mulatta CD27 (mmCD27), expressed on cells (Macaca mulatta (rhesus); same entry given for cynomolgus monkey). The experiment is described as follows: cell ELISA on CD27-transfected CHOK1 cells.
The target is the same in experiment [8]. The experiment is described as follows: flow cytometry MFI on CD8+ T cells from rhesus peripheral blood.
Target sequence in this assay (chain, as listed by the source): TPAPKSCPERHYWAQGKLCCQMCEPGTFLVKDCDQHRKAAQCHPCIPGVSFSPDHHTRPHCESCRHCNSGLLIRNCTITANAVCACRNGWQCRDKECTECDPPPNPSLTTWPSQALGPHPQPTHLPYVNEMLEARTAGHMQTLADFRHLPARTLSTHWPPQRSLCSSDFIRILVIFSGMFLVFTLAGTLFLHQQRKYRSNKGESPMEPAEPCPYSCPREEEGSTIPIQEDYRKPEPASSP
In experiment [9] the target is human CD27 (wild type), expressed on cells (human) (UniProt P26842). The experiment in a line: competition cell ELISA on CHO-hCD27; competitor detected: mouse hCD27.15 at 1 µg/ml.
Experiment [10] has as its target Macaca mulatta CD27 (mmCD27), expressed on cells (Macaca mulatta (rhesus); same entry given for cynomolgus monkey). The experiment in a line: flow cytometry MFI on CD4+ T cells from rhesus peripheral blood.
The next experiment concerns the target G89A. The experiment in a line: flow cytometry, CHO-K1; sub-column 2 of 2.

For 1F5 hIgG1 (antibody), the Emax (fold change), NF-κB-luciferase reporter assay in experiment [1] came to 1.3 fold change; in experiment [2] it was 1.48 fold change. In addition, the Fold Change values at 2.5 µg/ml, NF-κB-luciferase reporter assay in experiment [1] came out at 1.23 fold change; in [2], 1.34 fold change. Further, in [2], the NF-κB luciferase activity, 10 µg/ml fold change (FIG. 7A) is 2.23 fold change. This substance yielded an NF-κB luciferase activity, 10 µg/ml fold change (FIG. 7B) in experiment [2] of 1.73 fold change. Further, in experiment [3], the fold higher EC50 compared to 131AVH6VL6-hIgG1 is 4 fold. The pEC50 was 8.89 in experiment [4]; 9.49 in experiment [5]; 9.49 in experiment [6]; 9.71 in experiment [7]; 8.72 in [8]; 8.80 in experiment [10]. This substance came in with an IC50 (read off the curve) in experiment [9] of 4 nM. In the experiment with G89A, this substance yielded a % of WT hCD27 binding (geo mean FITC) of 68.5%.
